Source: IntAct's records for PubMed 24275654

B1: Tubulin beta chain (Homo sapiens), P07437 (parent)
chain: MREIVHIQAGQCGNQIGAKFWEVISDEHGIDPTGTYHGDSDLQLDRISVYYNEATGGKYVPRAILVDLEPGTMDSVRSGPFGQIFRPDNFVFGQSGAGNNWAKGHYTEGAELVDSVLDVVRKEAESCDCLQGFQLTHSLGGGTGSGMGTLLISKIREEYPDRIMNTFSVVPSPKVSDTVVEPYNATLSVHQLVENTDETYCIDNEALYDICFRTLKLTTPTYGDLNHLVSATMSGVTTCLRFPGQLNADLRKLAVNMVPFPRLHFFMPGFAPLTSRGSQQYRALTVPELTQQVFDAKNMMAACDPRHGRYLTVAAVFRGRMSMKEVDEQMLNVQNKNSSYFVEWIPNNVKTAVCDIPPRGLKMAVTFIGNSTAIQELFKRISEQFTAMFRRKAFLHWYTGEGMDEMEFTEAESNMNDLVSEYQQYQDATAEEEEDFGEEAEEEA
B2: Tubulin beta-6 chain (Homo sapiens), Q9BUF5 (parent)
chain: MREIVHIQAGQCGNQIGTKFWEVISDEHGIDPAGGYVGDSALQLERINVYYNESSSQKYVPRAALVDLEPGTMDSVRSGPFGQLFRPDNFIFGQTGAGNNWAKGHYTEGAELVDAVLDVVRKECEHCDCLQGFQLTHSLGGGTGSGMGTLLISKIREEFPDRIMNTFSVMPSPKVSDTVVEPYNATLSVHQLVENTDETYCIDNEALYDICFRTLKLTTPTYGDLNHLVSATMSGVTTSLRFPGQLNADLRKLAVNMVPFPRLHFFMPGFAPLTSRGSQQYRALTVPELTQQMFDARNMMAACDPRHGRYLTVATVFRGPMSMKEVDEQMLAIQSKNSSYFVEWIPNNVKVAVCDIPPRGLKMASTFIGNSTAIQELFKRISEQFSAMFRRKAFLHWFTGEGMDEMEFTEAESNMNDLVSEYQQYQDATANDGEEAFEDEEEEIDG
B3: Tubulin beta-4A chain (Homo sapiens), P04350 (parent)
chain: MREIVHLQAGQCGNQIGAKFWEVISDEHGIDPTGTYHGDSDLQLERINVYYNEATGGNYVPRAVLVDLEPGTMDSVRSGPFGQIFRPDNFVFGQSGAGNNWAKGHYTEGAELVDAVLDVVRKEAESCDCLQGFQLTHSLGGGTGSGMGTLLISKIREEFPDRIMNTFSVVPSPKVSDTVVEPYNATLSVHQLVENTDETYCIDNEALYDICFRTLKLTTPTYGDLNHLVSATMSGVTTCLRFPGQLNADLRKLAVNMVPFPRLHFFMPGFAPLTSRGSQQYRALTVPELTQQMFDAKNMMAACDPRHGRYLTVAAVFRGRMSMKEVDEQMLSVQSKNSSYFVEWIPNNVKTAVCDIPPRGLKMAATFIGNSTAIQELFKRISEQFTAMFRRKAFLHWYTGEGMDEMEFTEAESNMNDLVSEYQQYQDATAEEGEFEEEAEEEVA

Variants of: B1
Details: with lrrk2_human LRRK2, Q5S007
lrrk2_human LRRK2, Q5S007, sequence (Q5S007 whole entry): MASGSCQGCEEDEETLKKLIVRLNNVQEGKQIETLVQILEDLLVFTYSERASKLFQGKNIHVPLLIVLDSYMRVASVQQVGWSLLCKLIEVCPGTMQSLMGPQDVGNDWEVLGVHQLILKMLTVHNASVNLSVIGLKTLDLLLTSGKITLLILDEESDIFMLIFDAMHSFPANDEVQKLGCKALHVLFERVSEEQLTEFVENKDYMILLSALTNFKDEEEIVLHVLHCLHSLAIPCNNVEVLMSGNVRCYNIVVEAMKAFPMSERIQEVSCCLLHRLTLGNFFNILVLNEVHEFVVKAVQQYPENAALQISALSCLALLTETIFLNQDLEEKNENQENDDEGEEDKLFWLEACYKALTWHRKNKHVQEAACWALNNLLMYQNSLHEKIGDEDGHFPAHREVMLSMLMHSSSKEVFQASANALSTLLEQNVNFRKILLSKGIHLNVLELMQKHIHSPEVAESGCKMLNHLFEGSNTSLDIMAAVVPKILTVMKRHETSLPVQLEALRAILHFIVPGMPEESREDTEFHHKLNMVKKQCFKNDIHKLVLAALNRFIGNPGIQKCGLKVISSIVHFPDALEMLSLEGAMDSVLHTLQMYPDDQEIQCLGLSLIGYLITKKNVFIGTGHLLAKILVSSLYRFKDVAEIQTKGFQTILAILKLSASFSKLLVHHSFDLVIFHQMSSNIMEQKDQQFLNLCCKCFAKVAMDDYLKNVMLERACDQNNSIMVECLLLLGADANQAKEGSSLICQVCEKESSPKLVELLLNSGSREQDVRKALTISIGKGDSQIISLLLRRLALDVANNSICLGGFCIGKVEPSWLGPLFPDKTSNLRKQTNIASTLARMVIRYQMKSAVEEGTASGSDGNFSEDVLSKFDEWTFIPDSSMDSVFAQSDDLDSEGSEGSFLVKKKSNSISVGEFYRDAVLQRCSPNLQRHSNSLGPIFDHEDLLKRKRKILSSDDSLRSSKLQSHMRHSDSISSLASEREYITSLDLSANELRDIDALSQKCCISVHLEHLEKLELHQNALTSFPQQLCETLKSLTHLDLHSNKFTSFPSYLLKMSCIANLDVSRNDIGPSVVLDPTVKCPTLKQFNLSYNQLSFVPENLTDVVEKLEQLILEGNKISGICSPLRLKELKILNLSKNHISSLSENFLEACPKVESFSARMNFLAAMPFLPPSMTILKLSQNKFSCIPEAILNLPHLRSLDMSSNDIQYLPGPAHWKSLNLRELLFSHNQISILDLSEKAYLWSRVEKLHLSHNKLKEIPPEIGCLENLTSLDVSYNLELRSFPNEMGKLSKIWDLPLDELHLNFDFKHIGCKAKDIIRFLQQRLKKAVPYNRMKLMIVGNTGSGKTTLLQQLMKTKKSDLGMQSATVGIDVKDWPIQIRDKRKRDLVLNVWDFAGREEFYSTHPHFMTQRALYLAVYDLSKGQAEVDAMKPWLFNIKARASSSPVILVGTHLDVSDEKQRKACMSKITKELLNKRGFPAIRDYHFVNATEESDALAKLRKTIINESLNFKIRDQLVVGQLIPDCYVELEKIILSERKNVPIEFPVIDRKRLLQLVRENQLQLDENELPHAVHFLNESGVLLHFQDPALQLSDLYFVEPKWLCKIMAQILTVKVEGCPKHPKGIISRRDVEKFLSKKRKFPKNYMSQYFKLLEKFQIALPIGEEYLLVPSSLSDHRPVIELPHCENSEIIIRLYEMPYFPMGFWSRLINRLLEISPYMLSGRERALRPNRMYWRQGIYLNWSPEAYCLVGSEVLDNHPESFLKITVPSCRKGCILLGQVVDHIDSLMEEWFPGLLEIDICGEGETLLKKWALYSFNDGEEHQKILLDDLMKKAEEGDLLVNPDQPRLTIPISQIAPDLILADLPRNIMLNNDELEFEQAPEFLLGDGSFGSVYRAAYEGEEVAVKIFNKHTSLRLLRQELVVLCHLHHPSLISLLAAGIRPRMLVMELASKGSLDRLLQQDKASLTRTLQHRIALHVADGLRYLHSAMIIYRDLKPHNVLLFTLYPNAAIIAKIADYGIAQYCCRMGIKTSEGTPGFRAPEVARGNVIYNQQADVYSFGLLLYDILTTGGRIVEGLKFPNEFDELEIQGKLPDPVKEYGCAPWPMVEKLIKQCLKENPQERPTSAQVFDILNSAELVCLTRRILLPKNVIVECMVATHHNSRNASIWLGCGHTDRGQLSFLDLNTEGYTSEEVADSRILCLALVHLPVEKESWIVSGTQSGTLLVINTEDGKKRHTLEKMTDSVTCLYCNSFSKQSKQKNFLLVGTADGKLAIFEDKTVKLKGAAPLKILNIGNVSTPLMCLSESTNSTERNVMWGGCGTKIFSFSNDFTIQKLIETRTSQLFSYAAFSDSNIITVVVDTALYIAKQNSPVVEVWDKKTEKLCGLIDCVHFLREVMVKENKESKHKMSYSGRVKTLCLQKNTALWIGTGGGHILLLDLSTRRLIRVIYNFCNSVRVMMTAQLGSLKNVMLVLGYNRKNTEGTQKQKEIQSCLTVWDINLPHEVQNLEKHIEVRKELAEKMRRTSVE

Variant	effect of a mutation on the interaction
MREIVHIQAGQCGNQIGAKFWEVISDEHGIDPTGTYHGDSDLQLDRISVYYNEATGGKYVPRAILVDLEPGTMDSVRSGPFGQIFRPDNFVFGQSGAGNNWAKGHYTEGAELVDSVLDVVRKEAESCDCLQGFQLTHSLGGGTGSGMGTLLISKIREEYPDRIMNTFSVVPSPKVSDTVVEPYNATLSVHQLVENTDETYCIDNEALYDICFRTLKLTTPTYGDLNHLVSATMSGVTTCLRFPGQLNADLRKLAVNMVPFPRLHFFMPGFAPLTSRGSQQYRALTVPELTQQVFDAKNMMAACDPRHGRYLTVAAVFRGRMSMKEVDEQMLNVQNKNSSYFVEWIPNNVKTAVCDIPPRGLKMDVTFIGNSTAIQELFKRISEQFTAMFRRKAFLHWYTGEGMDEMEFTEAESNMNDLVSEYQQYQDATAEEEEDFGEEAEEEA [A364D]	disrupting interaction
MREIVHIQAGQCGNQIGAKFWEVISDEHGIDPTGTYHGDSDLQLDRISVYYNEATGGKYVPRAILVDLEPGTMDSVRSGPFGQIFRPDNFVFGQSGAGNNWAKGHYTEGAELVDSVLDVVRKEAESCDCLQGFQLTHSLGGGTGSGMGTLLISKIREEYPDRIMNTFSVVPSPKVSDTVVEPYNATLSVHQLVENTDETYCIDNEALYDICFRTLKLTTPTYGDLNHLVSATMSGVTTCLRFPGQLNADLRKLAVNMVPFPRLHFFMPGFAPLTSRGSQQYRALTVPELTQQVFDAKNMMAACDPRHGRYLTVAAVFRGRMSMKEVDEQMLNVQNKNSSYFVEWIPNNVKTAVCDIPPRGLKMSVTFIGNSTAIQELFKRISEQFTAMFRRKAFLHWYTGEGMDEMEFTEAESNMNDLVSEYQQYQDATAEEEEDFGEEAEEEA [A364S]	disrupting interaction
MREIVHIQAGQCGNQIGAKFWEVISDEHGIDPTGTYHGDSDLQLDRISVYYNEATGGKYVPRAILVDLEPGTMDSVRSGPFGQIFRPDNFVFGQSGAGNNWAKGHYTEGAELVDSVLDVVRKEAESCDCLQGFQLTHSLGGGTGSGMGTLLISKIREEYPDRIMNTFSVVPSPKVSDTVVEPYNATLSVHQLVENTDETYCIDNEALYDICFRTLKLTTPTYGDLNHLVSATMSGVTTCLRFPGQLNADLRKLAVNMVPFPRLHFFMPGFAPLTSRGSQQYRALTVPELTQQVFDAKNMMAACDPRHGRYLTVAAVFRGRMSMKEVDEQMLNVQNKNSSYFVEWIPNNVKTAVCDIPPRGLKMEVTFIGNSTAIQELFKRISEQFTAMFRRKAFLHWYTGEGMDEMEFTEAESNMNDLVSEYQQYQDATAEEEEDFGEEAEEEA [A364E]	disrupting interaction

Variants of: B2
Details: with lrrk2_human LRRK2, Q5S007

Variant	effect of a mutation on the interaction
MREIVHIQAGQCGNQIGTKFWEVISDEHGIDPAGGYVGDSALQLERINVYYNESSSQKYVPRAALVDLEPGTMDSVRSGPFGQLFRPDNFIFGQTGAGNNWAKGHYTEGAELVDAVLDVVRKECEHCDCLQGFQLTHSLGGGTGSGMGTLLISKIREEFPDRIMNTFSVMPSPKVSDTVVEPYNATLSVHQLVENTDETYCIDNEALYDICFRTLKLTTPTYGDLNHLVSATMSGVTTSLRFPGQLNADLRKLAVNMVPFPRLHFFMPGFAPLTSRGSQQYRALTVPELTQQMFDARNMMAACDPRHGRYLTVATVFRGRMSMKEVDEQMLAIQSKNSSYFVEWIPNNVKVAVCDIPPRGLKMSSTFIGNSTAIQELFKRISEQFSAMFRRKAFLHWFTGEGMDEMEFTEAESNMNDLVSEYQQYQDATANDGEEAFEDEEEEIDG [P320R;A364S]	disrupting interaction
MREIVHIQAGQCGNQIGTKFWEVISDEHGIDPAGGYVGDSALQLERINVYYNESSSQKYVPRAALVDLEPGTMDSVRSGPFGQLFRPDNFIFGQTGAGNNWAKGHYTEGAELVDAVLDVVRKECEHCDCLQGFQLTHSLGGGTGSGMGTLLISKIREEFPDRIMNTFSVMPSPKVSDTVVEPYNATLSVHQLVENTDETYCIDNEALYDICFRTLKLTTPTYGDLNHLVSATMSGVTTSLRFPGQLNADLRKLAVNMVPFPRLHFFMPGFAPLTSRGSQQYRALTVPELTQQMFDARNMMAACDPRHGRYLTVATVFRGRMSMKEVDEQMLAIQSKNSSYFVEWIPNNVKVAVCDIPPRGLSMASTFIGNSTAIQELFKRISEQFSAMFRRKAFLHWFTGEGMDEMEFTEAESNMNDLVSEYQQYQDATANDGEEAFEDEEEEIDG [P320R;K362S]	disrupting interaction

Variants of: B3
Details: with lrrk2_human LRRK2, Q5S007

Variant	effect of a mutation on the interaction
MREIVHLQAGQCGNQIGAKFWEVISDEHGIDPTGTYHGDSDLQLERINVYYNEATGGNYVPRAVLVDLEPGTMDSVRSGPFGQIFRPDNFVFGQSGAGNNWAKGHYTEGAELVDAVLDVVRKEAESCDCLQGFQLTHSLGGGTGSGMGTLLISKIREEFPDRIMNTFSVVPSPKVSDTVVEPYNATLSVHQLVENTDETYCIDNEALYDICFRTLKLTTPTYGDLNHLVSATMSGVTTCLRFPGQLNADLRKLAVNMVPFPRLHFFMPGFAPLTSRGSQQYRALTVPELTQQMFDAKNMMAACDPRHGRYLTVAAVFRGRMSMKEVDEQMLSVQSKNSSYFVEWIPNNVKTAVCDIPPRGLKMEATFIGNSTAIQELFKRISEQFTAMFRRKAFLHWYTGEGMDEMEFTEAESNMNDLVSEYQQYQDATAEEGEFEEEAEEEVA [A364E]	disrupting interaction
MREIVHLQAGQCGNQIGAKFWEVISDEHGIDPTGTYHGDSDLQLERINVYYNEATGGNYVPRAVLVDLEPGTMDSVRSGPFGQIFRPDNFVFGQSGAGNNWAKGHYTEGAELVDAVLDVVRKEAESCDCLQGFQLTHSLGGGTGSGMGTLLISKIREEFPDRIMNTFSVVPSPKVSDTVVEPYNATLSVHQLVENTDETYCIDNEALYDICFRTLKLTTPTYGDLNHLVSATMSGVTTCLRFPGQLNADLRKLAVNMVPFPRLHFFMPGFAPLTSRGSQQYRALTVPELTQQMFDAKNMMAACDPRHGRYLTVAAVFRGRMSMKEVDEQMLSVQSKNSSYFVEWIPNNVKTAVCDIPPRGLKMSATFIGNSTAIQELFKRISEQFTAMFRRKAFLHWYTGEGMDEMEFTEAESNMNDLVSEYQQYQDATAEEGEFEEEAEEEVA [A364S]	disrupting interaction
MREIVHLQAGQCGNQIGAKFWEVISDEHGIDPTGTYHGDSDLQLERINVYYNEATGGNYVPRAVLVDLEPGTMDSVRSGPFGQIFRPDNFVFGQSGAGNNWAKGHYTEGAELVDAVLDVVRKEAESCDCLQGFQLTHSLGGGTGSGMGTLLISKIREEFPDRIMNTFSVVPSPKVSDTVVEPYNATLSVHQLVENTDETYCIDNEALYDICFRTLKLTTPTYGDLNHLVSATMSGVTTCLRFPGQLNADLRKLAVNMVPFPRLHFFMPGFAPLTSRGSQQYRALTVPELTQQMFDAKNMMAACDPRHGRYLTVAAVFRGRMSMKEVDEQMLSVQSKNSSYFVEWIPNNVKTAVCDIPPRGLKMDATFIGNSTAIQELFKRISEQFTAMFRRKAFLHWYTGEGMDEMEFTEAESNMNDLVSEYQQYQDATAEEGEFEEEAEEEVA [A364D]	disrupting interaction
